Values quoted from earlier work, collected in article PMC9558565.

Target: p53p (Homo sapiens) (UniProt P04637)
Sequence (P04637 whole entry): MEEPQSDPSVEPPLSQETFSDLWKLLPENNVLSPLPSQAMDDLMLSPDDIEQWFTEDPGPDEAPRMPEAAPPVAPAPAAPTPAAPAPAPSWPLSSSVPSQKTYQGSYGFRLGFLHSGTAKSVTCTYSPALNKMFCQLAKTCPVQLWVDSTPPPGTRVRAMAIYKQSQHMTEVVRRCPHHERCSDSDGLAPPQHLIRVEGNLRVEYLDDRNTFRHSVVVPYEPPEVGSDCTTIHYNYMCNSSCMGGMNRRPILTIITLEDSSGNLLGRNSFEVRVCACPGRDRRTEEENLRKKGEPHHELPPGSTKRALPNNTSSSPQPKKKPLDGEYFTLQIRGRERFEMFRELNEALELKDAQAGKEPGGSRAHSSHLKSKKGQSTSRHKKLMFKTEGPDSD

Sequence of MDM2 (Q00987 whole entry): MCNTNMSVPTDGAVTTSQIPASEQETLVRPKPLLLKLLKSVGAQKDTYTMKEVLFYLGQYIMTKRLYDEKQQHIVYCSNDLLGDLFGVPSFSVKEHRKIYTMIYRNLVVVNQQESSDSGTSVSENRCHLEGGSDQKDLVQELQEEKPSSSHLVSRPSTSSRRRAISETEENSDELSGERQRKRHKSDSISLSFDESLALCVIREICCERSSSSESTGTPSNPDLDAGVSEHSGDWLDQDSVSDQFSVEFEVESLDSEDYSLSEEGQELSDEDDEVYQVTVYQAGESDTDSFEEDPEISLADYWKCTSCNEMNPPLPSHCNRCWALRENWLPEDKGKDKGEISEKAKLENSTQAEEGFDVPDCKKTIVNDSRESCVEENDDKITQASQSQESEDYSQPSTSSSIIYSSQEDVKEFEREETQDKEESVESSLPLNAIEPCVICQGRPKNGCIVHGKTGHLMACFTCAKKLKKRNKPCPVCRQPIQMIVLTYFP

Kd: 46 nM
Substance: MDM2 (from UniProt Q00987)
